Reference: article PMC8519809 (Cell Reports, 2021)

How the values were obtained:
MERS stem helix peptide = target: T1, MERS stem helix peptide (MERS-CoV); assay: crystal structure
T1 chain: DFQDELDEFFKNVST

[1] = target: T2, SARS-CoV-2 stem helix peptide (SARS-CoV-2); assay: crystal structure
T2 chain: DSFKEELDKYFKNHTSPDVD

B1: Fab22 (Fab, V domains shown)
VH: EVQLQQPGPVLVKPGASVRMSCKASGYRITDNFMNWVKQSHGKSLEWIGIINPYNGGTKYNQKFKGKATLTVDTSSSTAYMELNSLTSEDSAVYYCTRVRGNDYHGRAMDYWGQGTSVTVSS
VL: DVVLTQTPLSLPVNIGDQASISCKSTKSLLNRDGFTFLDWYLQKPGQSPQLLIYLVSNRFSGVPDRFSGSGSGTDFTLKISRVEAEDLGVYYCFQSNYLFTFGSGTKLEIK
B1: binds (MERS stem helix peptide).

B2: LCmod-Fab22 (Fab, V domains shown)
VH: B1 VH
VL: B1 VL
B2: binds [1].
